Target: T1, PD-L1-his蛋白 (人PD-L1胞外区, his标签) (human, UniProt Q9NZQ7 19-238)
T1 construct: extracellular domain; also called PD-L1蛋白; PD-L1-his蛋白标准品; not shown: his tag
Test: sandwich ELISA, PD-L1 antibody as capture, biotinylated antibody X as detection, HRP-Streptavidin

T1 sequence (Q9NZQ7 19-238): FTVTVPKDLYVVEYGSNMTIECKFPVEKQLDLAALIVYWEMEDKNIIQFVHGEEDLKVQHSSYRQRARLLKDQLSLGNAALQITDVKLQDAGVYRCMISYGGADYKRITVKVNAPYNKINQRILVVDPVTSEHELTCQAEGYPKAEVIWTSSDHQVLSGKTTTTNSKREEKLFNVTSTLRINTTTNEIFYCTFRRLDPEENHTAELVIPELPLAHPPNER

binding result: binds
B1: 抗体X (非封阻型抗PD-L1抗体) (antibody, V domains shown)
VH: QVQLQQSGTELMKPGASVKISCKATGYTFSNYWIEWVKQRPGHGLEWIGEILPGSGNTNYNENFKGKATFTADTSSNTAYMQLSRLTSEDSAVYYCARERASTSWGQGTLVTVSA
VL: DIQMTQTTSSLSASLGDRVTITCSASQGISNYLNWYQQNPDGTVKLLIYYTSHLHSGVSSRFSGSGSGTDYSLTISNLEPEDIATYYCQQYVKLPWTFGGGTKLEIK
notes: Used biotin-labelled as the detection antibody; also called PD-L1抗体X; 第二抗体
